“Also recorded” adds a separate entry of the source.
B1: miR-26a chimera: mouse c-Kit DNA aptamer-C3-passenger RNA, passenger RNA-TEG-cholesterol and miR-26a-5p guide strand annealed (SEQ ID NO:6/7, 8, 9) (nucleic acid)
chain 1: GCTCAACGCGGGACGGCTCTCCCATTGAC
chain 2: CCUAUUCUGG
chain 3: GUUACUUGCACG
guide: UUCAAGUAAUCCAGGAUAGGCU
modifications: chemistry not fully specified

Key:
TUBO cells = assay: Growth and apoptosis of TUBO cells in vitro; format: cell-based, mouse; conditions: for percentage of apoptotic TUBO cells (Annexin V+): single agent
Procedure: FIG. 4A-FIG. 4J show how miR-26a chimera inhibits mouse breast cancer growth and protects from chemo-induced myelosuppression. FIG. 4A is a graph showing the binding of c-Kit-aptamer to TUBO cells. […] Cell count (left) and Annexin V^+ cells (%) (right) of the cells cultured with miR-26a chimera or the control (ctrl) were determined by flow cytometry. Asterisks denote the significant difference between ctrl chimera versus miR-26a chimera, and between ctrl chimera+5-FU versus miR-26a chimera+5FU. Data (mean±s.d.) were pooled from two experiments. FIG. 4C is a graph showing miR-26a expression in c-Kit^+ or c-Kit cells harvested from TUBO-derived tumors in BALB/c mice treated with miR-26a chimera (670 pmol/20 g) for 3 days. Data (mean+s.d.) were pooled from two experiments, involving a total of 6 mice per group. FIG. 4D is a graph showing Ezh2 expression in c-Kit^+ or c-Kit− cells harvested from TUBO-derived tumors in BALB/c mice treated with miR-26a chimera (670 pmol/20 g) for 3 days. Data (mean+s.d.) were pooled from two experiments, involving a total of 6 mice per group. FIG. 4E is a graph showing Bak1 expression in c-Kit^+ or c-Kit-cells harvested from TUBO-derived tumors in BALB/c mice treated with miR-26a chimera (670 pmol/20 g) for 3 days. Data (mean+s.d.) were pooled from two experiments, involving a total of 6 mice per group. FIG. 4F is a graph showing miR-26a expression in bone marrow (BM) detected by qPCR at 3 days after intravenous injection with the miR-26a chimera (670 pmol/20 g). Data (mean+s.d.) were pooled from two experiments, involving a total of 6 mice per group. FIG. 4G is a graph showing Bak expression in bone marrow (BM) detected by qPCR at 3 days after intravenous injection with the miR-26a chimera (670 pmol/20 g). Data (mean+s.d.) were pooled from two experiments, involving a total of 6 mice per group. FIG. 4H is a graph showing tumor volume over time. BALB/c mice bearing TUBO cells were treated with miR-26a chimera (670 pmol/20 g) (5 times, gray arrows) and 50 mg/kg 5-FU (3 times, dark grey arrows). Data (mean+s.d.) were pooled from two experiments, involving a total of 6 mice per group. There was significant difference between 5-FU only group versus miR-26a chimera only group (two way repeated-measures ANOVA followed by Bonferroni post-test for day0 to day18 (interaction p-value<0.001). FIG. 4I is a graph showing tumor volume over time after combinational treatment with 5-FU and chimeras. Data (mean+s.d.) were pooled from two experiments, involving a total of 6 mice per group. There was significant difference between 5-FU+ctrl chimera group versus 5-FU+miR-26a chimera group (two way repeated-measures ANOVA followed by Bonferroni post-test for day0 to day21, interaction p-value<0.0001). FIG. 4J is a graph showing the numbers of WBC and PLT in the tumor bearing mice 5 days after 5-FU treatment. Data (mean+s.d.) pooled from two experiments, involving a total of 6 mice per group. *P<0.05, **P<0.01.
A mouse TUBO breast cancer model was used to evaluate the therapeutic potential of miR-26a chimera for the myeloprotection and anti-tumor growth in breast cancer chemotherapy. Binding ability of an aptamer targeting mouse c-Kit to the TUBO cells was first tested by flow cytometry. […] To determine whether the mouse c-Kit-miR-26a chimera can inhibit the growth of mouse breast cancer cells in vitro, the TUBO cells were treated with increasing doses of miR-26a- or control-chimeras, and the viable cells counted under microscope at 2 days after the treatment.

TUBO-derived tumors = assay: Syngeneic TUBO breast tumor model in BALB/c mice; format: in vivo, mouse; conditions: for tumor size / growth, monotherapy: chimera 670 pmol/20 g 5 daily injections, 5-FU 50 mg/kg 3 times
Procedure: BALB/c mice bearing TUBO tumors were treated intravenously with miR-26a chimera (670 pmol/20 g) daily for 5 days. At days 2, 3, and 4, 50 mg/kg 5-FU was intravenously injected. Peripheral blood was collected 5 and 10 days after the initial 5-FU treatment. FIG. 9A is a series of graphs showing the numbers of WBC, RBC, and PLT 5 days after 5-FU treatment. FIG. 9B is a series of graphs showing the numbers of WBC, RBC, and PLT 10 days after 5-FU treatment. Data (mean+s.d.) were pooled from two experiments, involving a total of 6 mice per group. *, P<0.05, **, P<0.01. Xenograft model were generated 8-weeks old female immune-deficient NOD-scid IL2Rgamma^null (NSG™, Jackson Laboratories, Bar Harbar, Me., USA) using human breast cancer cell line. Syngeneic TUBO tumors were established in 8-weeks old female BALB/c mice (from Charles River Animal Facility, Frederick, Md., USA). These tumor-bearing mice were randomly assigned to each treatment group. Eight-week old male C57BL/6 mice and C57BL/6 ly5.2 mice (from Charles River Animal Facility, Frederick, Md., USA) were used for bone marrow transplantation assay. The mouse groups assigned for each treatment were not blinded. No statistical methods were used to pre-determined sample size for the analysis of mouse experiments. All the mice were maintained in the Research Animal Facility at Children's National Institute, Children's National Medical Center. The committee on the Use and Care of Animal at Children's National Institute approved all procedures involving experimental animals. For xenograft models, the NSG mice and BALB/c mice were subcutaneously injected with 2×10^6 viable MDA-MB-231 cells and TUBO cells in their right hind limbs, respectively. After the tumor grew to 1 cm in diameter, mice were randomly divided into the groups for each treatment. For no treatment control, 100 μl saline with 1% mouse serum was intravenously injected through tail vein. […] Tumor sizes were measured in two dimensions every 3 days. Tumor volume (V) was calculated using the following formula: V=(½) S^2×L (S. the shortest dimension; L, the longest dimension). […] For chimera treatment in normal mice, C57BL/6 mice were treated with miR-26a chimera (670 pmol/20 g) everyday for 3 days by intravenous injection. […] Peripheral bloods were collected at day 5 and day 10 after the 5-FU treatment. Complete blood counts were measured by Hemavet 950FS (Drew Scientific, Miami Lakes, Fla., USA).

Molecule | reduction in tumor cell number (TUBO cells; TUBO cells, 7 μM of 5-FU alone) | percentage of apoptotic TUBO cells (Annexin V+) (TUBO cells) | leukocytes and thrombocytes after 5-FU (TUBO-derived tumors; TUBO-tumor bearing mice, 5-FU 50 mg/kg x3) | tumor size / growth, monotherapy (TUBO-derived tumors) | tumor cell number / effects, chimera in combination with 5-FU (TUBO cells; TUBO cells, 5-FU 1 μg/ml (7 μM) plus chimera) | IC50 (TUBO cells; TUBO cells, viable cells counted 2 days after treatment, chimera alone, read-out: IC50, reduction in tumor cell number) [nM] | TUBO cell growth (cell count) (TUBO cells; chimera alone, increasing doses) | percentage of apoptotic TUBO cells, chimera in combination with 5-FU (TUBO cells; combination) | tumor growth, 5-FU combined with chimera (TUBO-derived tumors; 5-FU plus miR-26a chimera) | number of leukocytes (WBC) and thrombocytes (PLT), combination with 5-FU (TUBO-derived tumors; TUBO-tumor bearing mice, 5 days after 5-FU) | 5-FU-induced leukopenia / myelosuppression in tumor-bearing mice (TUBO-derived tumors; chimera daily for 5 days, 5-FU at days 2, 3, 4)
O=c1[nH]cc(F)c(=O)[nH]1 [5-FU, 5-fluorouracil, reference compound] | less than 20% | increased | significant leukopenia and thrombocytopenia | growth retardation |  |  |  |  |  |  | 
B1 |  | induced apoptosis; also recorded: increased |  | significant decrease of tumor size; also recorded: more effective than 5-FU treatment | enhanced these effects; also recorded: synergistically reduced tumor cells | ~83 | suppressed the growth; also recorded: dose-dependent reduction | increased | most effective growth retardation | nearly doubled | ameliorates 5-FU induced myelosuppression; also recorded: largely prevented leukopenia

Reference: patent US20200171068A1, “COMPOSITIONS COMPRISING APTAMERS AND NUCLEIC ACID PAYLOADS AND METHODS OF USING THE SAME” (Children's National Medical Center, priority 2017, published 2020)
